We go through two molecules from patent publication US5723436, “Calcineurin interacting protein compositions and methods” (The Board of Trustees of the Leland Stanford Junior …, dated 1998).

For this assay, the target named is GAD (GAL4 activation domain alone, from pGAD) (yeast, UniProt P04386). Briefly: yeast GAL4 two-hybrid, fusion tested against the complementary GAL4 domain not fused to a second protein.

B1: GBT-A2 (G4BD-CNA2) (other)
chain: MKLLSSIEQACDICRLKKLKCSKEKPKCAKCLKNNWECRYSPKTKRSPLTRAHLTEVESRLERLEQLFLLIFPREDLDMILKMDSLQDIKALLTGLFVQDNVNKDAVTDRLASVETDMPLTLRQHRISATSSSEESSNKGQRQLTVSMSSDAIRNTEQINAAIKIIENKTERPQSSTTPIDSKASTVAAANSTATETSRDLTQYTLDDGRVVSTNRRIMNKVPAITSHVPTDEELFQPNGIPRHEFLRDHFKREGKLSAAQAARIVTLATELFSKEPNLISVPAPITVCGDIHGQYFDLLKLFEVGGDPATTSYLFLGDYVDRGSFSFECLIYLYSLKLNFNDHFWLLRGNHECKHLTSYFTFKNEMLHKYNLDIYEKCCESFNNLPLAALMNGQYLCVHGGISPELNSLQDINNLNRFREIPSHGLMCDLLWADPIEEYDEVLDKDLTEEDIVNSKTMVPHHGKMAPSRDMFVPNSVRGCSYAFTYRAACHFLQETGLLSIIRAHEAQDAGYRMYKNTKTLGFPSLLTLFSAPNYLDTYNNKAAILKYENNVMNIRQFNMTPHPYWLPDFMDVFTWSLPFVGEKVTEMLVAILNICTEDELENDTPVIEELVGTDKKLPQAGKSEATPQPATSASPKHASILDDEHRRKALRNKILAVAKVSRMYSVLREETNKVQFLKDHNSGVLPRGALSNGVKGLDEALSTFERARKHDLINEKLPPSLDELKNENKKYYEKVWQKVHEHDAKNDSK
Consider B1, for which the binding result is recorded as “no binding”.

B2: GBT-A1 (G4BD-CNA1) (other)
chain: MKLLSSIEQACDICRLKKLKCSKEKPKCAKCLKNNWECRYSPKTKRSPLTRAHLTEVESRLERLEQLFLLIFPREDLDMILKMDSLQDIKALLTGLFVQDNVNKDAVTDRLASVETDMPLTLRQHRISATSSSEESSNKGQRQLTVSMSKDLNSSRIKIIKPNDSYIKVDRKKDLTKYELENGKVISTKDRSYASVPAITGKIPSDEEVFDSKTGLPNHSFLREHFFHEGRLSKEQAIKILNMSTVALSKEPNLLKLKAPITICGDIHGQYYDLLKLFEVGGDPAEIDYLFLGDYVDRGAFSFECLIYLYSLKLNNLGRFWMLRGNHECKHLTSYFTFKNEMLHKYDMEVYDACCRSFNVLPLAALMNGQYFCVHGGISPELKSVEDVNKINRFREIPSRGLMCDLLWADPVENYDDARDGSEFDQSEDEFVPNSLRGCSFAFTFKASCKFLKANGLLSIIRAHEAQDAGYRMYKNNKVTGFPSLITMFSAPNYLDTYHNKAAVLKYEENVMNIRQFHMSPHPYWLPDFMDVFTWSLPFVGEKVTSMLVSILNICSEQELDPESEPKAAEETVKARANATKETGTPSDEKASSAILEDETRRKALRNKILAIAKVSRMFSVLREESEKVEYLKTMNAGVLPRGALARGTEGLNETLSTFEKARKEDLINEKLPPSLSEVEQEKIKYYEKILKGAEKKPQL
Take B2: the binding result is listed as “no binding”.
